# Data reported in publication PMC10115844, “The structural basis of tRNA recognition by arginyl-tRNA-protein transferase”.
# T1: scATE1 (arginyl-tRNA-protein transferase 1) (Saccharomyces cerevisiae) (UniProt P16639)
# T1 sequence: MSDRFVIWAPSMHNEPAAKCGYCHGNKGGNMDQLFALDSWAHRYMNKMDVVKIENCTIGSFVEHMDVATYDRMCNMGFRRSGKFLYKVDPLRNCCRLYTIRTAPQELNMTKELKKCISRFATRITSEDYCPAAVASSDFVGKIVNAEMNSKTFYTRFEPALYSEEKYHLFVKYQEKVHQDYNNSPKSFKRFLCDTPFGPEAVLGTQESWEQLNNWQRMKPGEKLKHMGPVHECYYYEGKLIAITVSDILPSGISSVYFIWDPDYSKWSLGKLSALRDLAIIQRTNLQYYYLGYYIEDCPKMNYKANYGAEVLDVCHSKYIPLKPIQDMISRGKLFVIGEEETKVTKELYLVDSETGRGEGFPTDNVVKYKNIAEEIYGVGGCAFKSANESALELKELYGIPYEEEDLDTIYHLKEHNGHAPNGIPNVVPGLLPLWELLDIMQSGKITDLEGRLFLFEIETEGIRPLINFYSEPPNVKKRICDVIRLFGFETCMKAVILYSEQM
# T2: scATE1 (arginyl-tRNA-protein transferase 1) (Saccharomyces cerevisiae, UniProt P16639 1-503)
# T2 sequence: T1 sequence
# B1: E. coli tRNAArg acceptor arm miniRNA hairpin (structured_RNA)
# RNA: GCAUCCGCUACGAACGGAUGCACCA
# B2: tRNAArg (argU) in the cryoEM complex (structured_RNA)
# RNA: GCGCCCUUAGCUCAGUUGGAUAGAGCAACGACCUUCUAAGUCGUGGGCCGCAGGUUCGAAUCCUGCAGGGCGCGCCA
# modifications: native modifications possible, not stated
# Legend:
# [1] = biological target: T1, scATE1 (arginyl-tRNA-protein transferase 1) (Saccharomyces cerevisiae); test: EMSA; settings: EMSA: 20 mM Tris-HCl pH 7.5, 150 mM NaCl, 5 mM DTT, on ice (tRNAArg: 0.001% NP-40, 30 °C), MST: 10 mM Tris, 5 mM Na phosphate pH 7.0, 100 mM NaCl, 3 mM DTT …
# [2] = biological target: T2, scATE1 (arginyl-tRNA-protein …); test: MST competition; displacement of FAM-DNA, 30 µM ATE1; EMSA: 20 mM Tris-HCl pH 7.5, 150 mM NaCl, 5 mM DTT, on ice (tRNAArg: 0.001% NP-40, 30 °C); MST: 10 mM Tris, 5 mM Na phosphate pH 7.0, 100 mM NaCl, 3 mM DTT, 0.08% Tween-20; fluorescence: 20 mM Tris pH 7.5, 125 mM NaCl, 3 mM DTT, 27 °C; settings: protein: recombinant; tags: N-terminal GST (pGEX 6p-1), cleaved with PreScission; label: none (SYBR green stain); hairpin
# [3] = biological target: T2, scATE1 (arginyl-tRNA-protein …); test: cryoEM structure; co-purified complex, 3.7 Å map; EMD-29638; EMSA: 20 mM Tris-HCl pH 7.5, 150 mM NaCl, 5 mM DTT, on ice (tRNAArg: 0.001% NP-40, 30 °C); MST: 10 mM Tris, 5 mM Na phosphate pH 7.0, 100 mM NaCl, 3 mM DTT, 0.08% Tween-20; fluorescence: 20 mM Tris pH 7.5, 125 mM NaCl, 3 mM DTT, 27 °C; settings: protein: recombinant; tags: N-terminal GST (pGEX 6p-1), cleaved with PreScission; label: none; tRNA cloverleaf
molecule,measurement,setting,value
"full-length tRNALys, in vitro transcribed",binding signal (fold weaker than tRNAArg),"[1]; 0.25 µM tRNA, affinity similar to acceptor arm alone",20
human tRNAArg acceptor (A) arm,Kd,[1]; 2-fold stronger than E. coli acceptor arm,1.5 µM
"human tRNAArg, in vitro transcribed",Kd,"[1]; 30 °C, 0.001% NP-40, 1 nM RNA, apparent Kd",0.155 µM
E. coli tRNALys acceptor arm,Kd,"[1]; smeary bands, possibly non-specific",4 µM
human tRNAArg A + T arms,binding signal (fold higher affinity from A + T arms),[1],4
B1,Ki,[2],~3.6 µM
B2,binding result,[3],binds
